Measured values as given in PMC7062184, “A lipoprotein lipase–GPI-anchored high-density lipoprotein–binding protein 1 fusion lowers triglycerides in mice: Implications for managing familial chylomicronemia syndrome” (The Journal of Biological Chemistry, 2019).

T1: LPL (untagged human lipoprotein lipase) (human)
T1 chain: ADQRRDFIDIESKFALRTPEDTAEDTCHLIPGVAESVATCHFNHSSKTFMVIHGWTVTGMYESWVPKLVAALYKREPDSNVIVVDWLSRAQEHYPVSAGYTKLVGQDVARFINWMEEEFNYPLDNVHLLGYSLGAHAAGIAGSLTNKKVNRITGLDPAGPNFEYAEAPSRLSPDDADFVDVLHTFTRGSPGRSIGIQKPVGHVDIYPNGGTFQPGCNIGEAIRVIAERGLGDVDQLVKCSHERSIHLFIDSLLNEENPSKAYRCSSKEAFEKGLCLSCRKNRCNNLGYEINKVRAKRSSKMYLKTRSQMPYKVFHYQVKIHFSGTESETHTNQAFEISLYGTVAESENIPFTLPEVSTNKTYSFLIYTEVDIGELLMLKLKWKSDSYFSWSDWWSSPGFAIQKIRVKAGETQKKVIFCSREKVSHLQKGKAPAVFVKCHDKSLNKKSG

T2: His6-LPL-HA-FLAG (human)
T2 chain: T1 chain

T3: LPL(28–475)-(G4S)4-hGPIHBP1(21–151)-FLAG-His6-Avi (human, biotin on the C-terminal AviTag (BirA) in ELISA and SPR)
T3 chain: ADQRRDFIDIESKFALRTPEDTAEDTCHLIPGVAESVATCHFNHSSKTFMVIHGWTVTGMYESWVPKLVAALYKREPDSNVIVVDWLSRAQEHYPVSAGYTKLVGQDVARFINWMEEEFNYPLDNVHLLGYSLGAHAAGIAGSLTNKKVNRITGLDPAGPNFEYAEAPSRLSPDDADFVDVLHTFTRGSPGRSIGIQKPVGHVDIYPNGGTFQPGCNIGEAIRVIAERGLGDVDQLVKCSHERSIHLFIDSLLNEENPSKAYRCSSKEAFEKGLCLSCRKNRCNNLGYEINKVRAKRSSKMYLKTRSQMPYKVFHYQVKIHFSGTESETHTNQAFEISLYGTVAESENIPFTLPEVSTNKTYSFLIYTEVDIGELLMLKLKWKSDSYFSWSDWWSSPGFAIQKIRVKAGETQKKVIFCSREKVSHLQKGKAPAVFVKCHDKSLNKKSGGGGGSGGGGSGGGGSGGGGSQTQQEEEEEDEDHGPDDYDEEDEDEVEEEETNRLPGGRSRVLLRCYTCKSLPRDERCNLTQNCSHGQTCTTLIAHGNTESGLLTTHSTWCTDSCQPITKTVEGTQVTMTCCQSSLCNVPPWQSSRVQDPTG

B1: ANGPTL3(17–460)-FLAG-His6-Avi (natural protein)
chain: SRIDQDNSSFDSLSPEPKSRFAMLDDVKILANGLLQLGHGLKDFVHKTKGQINDIFQKLNIFDQSFYDLSLQTSEIKEEEKELRRTTYKLQVKNEEVKNMSLELNSKLESLLEEKILLQQKVKYLEEQLTNLIQNQPETPEHPEVTSLKTFVEKQDNSIKDLLQTVEDQYKQLNQQHSQIKEIENQLRRTSIQEPTEISLSSKPRAPRTTPFLQLNEIRNVKHDGIPAECTTIYNRGEHTSGMYAIRPSNSQVFHVYCDVISGSPWTLIQHRIDGSQNFNETWENYKYGFGRLDGEFWLGLEKIYSIVKQSNYVLRIELEDWKDNKHYIEYSFYLGNHETNYTLHLVAITGNVPNAIPENKDLVFSTWDHKAKGHFNCPEGYSGGWWWHDECGENNLNGKYNKPRAKSKPERRRGLSWKSQNGRLYSIKSTKMLIHPTDSESFE
B2: Soluble GPIHBP1(21–151)-FLAG-His6-Avi (domain or fragment, human)
chain: QTQQEEEEEDEDHGPDDYDEEDEDEVEEEETNRLPGGRSRVLLRCYTCKSLPRDERCNLTQNCSHGQTCTTLIAHGNTESGLLTTHSTWCTDSCQPITKTVEGTQVTMTCCQSSLCNVPPWQSSRVQDPTG
modifications: biotin on the C-terminal AviTag (BirA) where immobilised or labelled with streptavidin-D2; nonbiotinylated as free competitor in TR-FRET
notes: human GPIHBP1, soluble fragment of residues 21–151; also called GPIHBP1-Avi; hGPIHBP1-Avi; source: HEK293T, transfected, purified (Ni-NTA); also co-expressed with LPL and LMF1 in HEK293T and purified as the complex (Ni-NTA, SEC); not shown: AviTag, C-terminal, kept
B3: Soluble GPIHBP1(21–151), untagged (domain or fragment, human)
chain: B2 chain
notes: human GPIHBP1, soluble fragment of residues 21–151 (part of the extracellular domain); also called untagged GPIHBP1
B4: His6-TEV-LPL (N-terminally His6-tagged human lipoprotein lipase) (enzyme)
chain: T1 chain
notes: human lipoprotein lipase; also called His6-LPL; hLPL; not shown: His6, N-terminal, kept
B5: His6-LPL-HA-FLAG (enzyme, human)
chain: T1 chain
notes: human lipoprotein lipase; Used as the complex with biotinylated hGPIHBP1-Avi in the TR-FRET assay; also called His6-hLPL-HA-FLAG; source: HEK293T, co-transfected with GPIHBP1 and LMF1, complex purified (Ni-NTA, SEC); not shown: His6, N-terminal, kept; HA, C-terminal, kept; FLAG, C-terminal, kept
B6: ANGPTL4(26–406)-FLAG-His6-Avi (natural protein)
chain: QPGPVQSKSPRFASWDEMNVLAHGLLQLGQGLREHAERTRSQLSALERRLSACGSACQGTEGSTDLPLAPESRVDPEVLHSLQTQLKAQNSRIQQLFHKVAQQQRHLEKQHLRIQHLQSQFGLLDHKHLDHEVAKPARRKRLPEMAQPVDPAHNVSRLHRLPRDCQELFQVGERQSGLFEIQPQGSPPFLVNCKMTSDGGWTVIQRRHDGSVDFNRPWEAYKAGFGDPHGEFWLGLEKVHSITGDRNSRLAVQLRDWDGNAELLQFSVHLGGEDTAYSLQLTAPVAGQLGATTVPPSGLSVPFSTWDQDHDLRRDKNCAKSLSGGWWFGTCSHSNLNGQYFRSIPQQRQKLKKGIFWKTWRGRYYPLQATTMLIQPMAAEAAS

Key:
[1] = molecular target: T1, LPL (untagged human lipoprotein lipase); experiment: cell-based or functional assay
[2] = molecular target: B4; experiment: cell-based or functional assay
[3] = molecular target: T2, His6-LPL-HA-FLAG; experiment: FRET; dissociation of LPL(HA)-GPIHBP1(Avi) complex (10 nM)
[4] = molecular target: B5; experiment: FRET or BRET; TR-FRET; 10 nM His6-hLPL-HA-FLAG/biotinylated hGPIHBP1-Avi complex challenged with 1–1000 nM nonbiotinylated ANGPTL4, ANGPTL3 or GPIHBP1, 1 h room temperature; 20 mM HEPES pH 7.4, 100 mM NaCl, 10% heat-inactivated FBS, 5 mM CaCl2; anti-HA-Tb and streptavidin-D2; conditions: both partners purified
[5] = molecular target: T2, His6-LPL-HA-FLAG; experiment: FRET
[6] = molecular target: B4; experiment: SEC; His6-LPL, GPIHBP1 and LMF1 co-transfected 3:1:1 in HEK293T; complex captured from the medium by Ni-affinity, then Superdex 200 in 10 mM Tris pH 7.5, 300 mM NaCl; eluted at ~75 kDa; conditions: both partners purified
[7] = molecular target: B2; experiment: ELISA; 10 nM LPL/GPIHBP1 complex or fusion, biotinylated at the C-terminal AviTag of GPIHBP1, incubated with ANGPTL4 (12-point 2-fold dilution from 100 nM), then applied to a streptavidin-coated MSD plate; LPL and ANGPTL4 detected with specific antibodies; conditions: both partners purified
[8] = molecular target: B2; experiment: FRET or BRET; TR-FRET; 10 nM His6-hLPL-HA-FLAG/biotinylated hGPIHBP1-Avi complex challenged with 1–1000 nM nonbiotinylated ANGPTL4, ANGPTL3 or GPIHBP1, 1 h room temperature; 20 mM HEPES pH 7.4, 100 mM NaCl, 10% heat-inactivated FBS, 5 mM CaCl2; anti-HA-Tb and streptavidin-D2; conditions: both partners purified
[9] = molecular target: T2, His6-LPL-HA-FLAG; experiment: FRET; competition: dissociation of LPL(HA)/GPIHBP1(Avi) complex
[10] = molecular target: T3, LPL(28–475)-(G4S)4-hGPIHBP1(21–151)-FLAG …; experiment: cell-based or functional assay

Binder: B1
IC50 of ANGPTL3-mediated inactivation of 10 nM LPL alone, hydrolysis of VLDL [1]: 8 nM
IC50 of ANGPTL3-mediated inactivation of 10 nM coexpressed LPL/GPIHBP1 complex, hydrolysis of VLDL [2]: 300 nM
IC50 [3]: 100 nM

Binder: B2
binding result [4]: binds
IC50 [5]: 15 nM

Binder: B3
stoichiometry N [6]: 1

Binder: B4
binding result [7]: binds

Binder: B5
binding result [8]: binds

Binder: B6
IC50 [9]: 18 nM
IC50 of ANGPTL4-mediated inactivation of 10 nM fusion protein against that of LPL alone, hydrolysis of VLDL [10]: 36 fold
IC50 of ANGPTL4-mediated inactivation of 10 nM fusion protein against that of the coexpressed LPL/GPIHBP1 complex, hydrolysis of VLDL [10]: 6 fold
IC50 of ANGPTL4-mediated inactivation of 10 nM LPL alone, hydrolysis of VLDL [1]: 3 nM
IC50 of ANGPTL4-mediated inactivation of 10 nM coexpressed LPL/GPIHBP1 complex, hydrolysis of VLDL [2]: 19 nM
IC50 [3]: 10 nM
